Positions count from the first letter of the chain named. Names and notes keep the numbering of the source.
T1: human CD27L on the surface of cells (human, UniProt P32970 1-193)
T1 sequence: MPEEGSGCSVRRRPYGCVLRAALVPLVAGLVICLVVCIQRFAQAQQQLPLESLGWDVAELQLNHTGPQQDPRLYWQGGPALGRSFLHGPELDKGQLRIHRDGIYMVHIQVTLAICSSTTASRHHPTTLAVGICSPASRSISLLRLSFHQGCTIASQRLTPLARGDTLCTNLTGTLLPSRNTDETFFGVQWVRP

T2: CD27L bound to Maxisorp plates (Homo sapiens (Human), UniProt P32970 39-193, limits assumed)
T2 sequence: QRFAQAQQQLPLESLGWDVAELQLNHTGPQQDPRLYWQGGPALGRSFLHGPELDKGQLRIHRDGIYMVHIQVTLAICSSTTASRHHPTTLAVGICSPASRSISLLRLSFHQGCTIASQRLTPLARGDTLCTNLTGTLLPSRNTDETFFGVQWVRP

T3: cynomolgus monkey CD27L (cynomolgus monkey, UniProt A0A2K5WTU9 39-190)
T3 construct: also called cynomolgus CD27L
T3 sequence: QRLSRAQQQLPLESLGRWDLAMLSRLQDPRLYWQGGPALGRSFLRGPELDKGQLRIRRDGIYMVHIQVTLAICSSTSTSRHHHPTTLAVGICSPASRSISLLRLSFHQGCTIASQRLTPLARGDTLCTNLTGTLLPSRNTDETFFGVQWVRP

T4: Histidine-tagged human soluble CD27L (human, UniProt P32970 39-193)
T4 construct: also called Hu CD27L-his; soluble human CD27L-his; not shown: histidine tag
T4 sequence: T2 sequence

B1: Ab4-MCC-DM1 (antibody, human IgG1, kappa, V domains shown)
VH: QVQLVESGGGVVQPGRSLRLSCAASGFTFSNYGIHWVRQAPGKGLEWVAVIWYDGSNKYYADSVKGRFTISRDNSKNTLYLQMNSLRAEDTAVYYCARDGGYSGYDSGFDYWGQGTLVTVSS
VL: DIVMTQSPLSLPVTPGEPASISCRSSQSLLNSNGYNYLDWYLQKPGQSPQFLIYLGSYRASGVPDRFSGSGSGTDFTLRISRVEAEDVGVYYCIQTLQTPFTFGPGTKVDIKR
modifications: DM1 linked through MCC (SMCC) to lysine residues; 4.5-5.0 DM1 molecules per antibody on average, sites not given
notes: also called Ab4 antibody drug conjugate; conjugated Ab4
B2: Ab4 (antibody, human IgG1, kappa, V domains shown)
VH: B1 VH
VL: B1 VL
notes: Fully human IgG1; also called A4; unconjugated parental Ab4
B3: Ab8-MCC-DM1 (antibody, human IgG1, kappa, V domains shown)
VH: QVQLVESGGGVVQPGRSLRLSCAASGFTFSSYGMHWVRQAPGKGLEWVAVIWYDGSDKYFADSVKGRFTISRDNSKNTLYLQMNSLRAEDTAVYYCARDGIAGARYVYFDYWGQGTLVTVSS
VL: DIQMTQSPSSLSASVGDRVTITCRASQGISNYLAWFQQKPGKAPKSLIYAASSLQGGVPSKFSGSGSGTDFTLTISSLQPEDFATYYCQQYYNYPFTFGPGTTVDIKR
notes: also called Ab8 antibody drug conjugate; conjugated Ab8
B4: Ab8 (antibody, human IgG1, kappa, V domains shown)
VH: B3 VH
VL: B3 VL
notes: also called A8; unconjugated Ab8
B5: Ab4 variant Parent LC + S103G-G104S (antibody, V domains shown)
VH: B1 VH with S103G, G104S
VL: DIVMTQSPLSLPVTPGEPASISCRSSQSLLNSNGYNYLDWYLQKPGQSPQFLIYLGSYRASGVPDRFSGSGSGTDFTLRISRVEAEDVGVYYCIQTLQTPFTFGPGTKVDIK
notes: Rest as Ab4 (IgG1)
B6: Ab4 variant R24K-S26G + G33S-I34L (antibody, V domains shown)
VH: B1 VH with G33S, I34L
VL: B5 VL with R24K, S26G
notes: Rest as Ab4 (IgG1)
B7: Ab4 variant Parent LC + G33S-I34L (antibody, V domains shown)
VH: B1 VH with G33S, I34L
VL: B5 VL
notes: Rest as Ab4 (IgG1)
B8: Ab4 variant L55I-Y58F + G33S-I34L (antibody, V domains shown)
VH: B1 VH with G33S, I34L
VL: B5 VL with L55I, Y58F
notes: Rest as Ab4 (IgG1)
B9: Ab4 variant Q95N-T96S + S103G-G104S (antibody, V domains shown)
VH: B1 VH with S103G, G104S
VL: B5 VL with Q95N, T96S
notes: Rest as Ab4 (IgG1)
B10: Ab4 variant Q95N-T96S + G33S-I34L (antibody, V domains shown)
VH: B1 VH with G33S, I34L
VL: B5 VL with Q95N, T96S
notes: Rest as Ab4 (IgG1)
B11: Ab6 (antibody, human IgG1, lambda, V domains shown)
VH: QVQLVQSGAEVKKPGASVKVSCKASGYTFTSYGISWVRQAPGQGLEWMGWISAYNGYTHYAQKLQGRVTMTTDTSTSTAYMELRSLRSDDTAVYYCARDYGGNDYYGMDVWGQGTTVTVSS
VL: QSVLTQPPSASGTPGQRVTISCSGSSSNIGINYVYWYQQLPGTAPKLLIYRSDQRPSGVPDRFSGSKSGTSASLALSGLRSEDEADYYCAAWDDSLSGVVFGGGTKLTVLG
notes: Fully human IgG1 from XenoMouse hybridoma
B12: Ab5 (antibody, human IgG1, kappa, V domains shown)
VH: QVQLVQSGAEVKKPGASVKVSCKASGYTFTSYDINWVRQATGQGLEWMGWMNPNSGNTGYAQKFQGRVTMTRNTSISTAYMELSSLRSEDTAVYYCARGYDFWSGYYYYYYGMDVWGQGTTVTVSS
VL: EIVLTQSPGTLSLSPGERATLSCRASQSVSSSYLAWYQQRPGQAPRLLIYGASSRATGIPDRFSGSGSGTDFTLTISSLEPEDFAVYYCLQSGSSVPLTFGGGTKVEIKR
notes: as for B11
B13: Ab7 (antibody, human IgG1, lambda, V domains shown)
VH: QVQLVESGGGVVQPGRSLRLSCAASGFTFSTYGMHWVRQAPGKGLEWVAVIWYDGSNKYYGDSVKGRFTISRDNSKNTLYLQMNSLRAEDTAVYYCARDNSHYYYGMDVWGQGTTVTVSS
VL: QSVLTQPPSVSGAPGQRVTISCTGSSSNIGAGYDVNWYQQFPGTAPKLLIYVNNNRPSGVPDRFSGSTSGTSASLAITGLQAEDEADYYCQSYDTSLSASVFGGGTRLTVLG
notes: as for B11
B14: Ab3 (antibody, IgG1, V domains shown)
VH: EVQLLESGGGLVQPGGSLRLSCAASGFTFSSYAMSWVRQAPGKGLEWVSVISDSGGTTDYADSVKGRFTISRDNSKNTLYLQMNSLRAEDTAVYYCARHDYSNRYYFDYWGQGTLVTVSS
VL: EIVLTQSPGTLSLSPGERATLSCRASQSFSSNYLAWYQQKPGQAPRLFIYGASSRATGIPDRFSGSGSGTDFTLTISRLEPEDFAVYFCQQYGISPCSFGQGTKLEIK
notes: Tested as hybridoma supernatant
B15: Ab1 (antibody, human IgG1, kappa, V domains shown)
VH: QMQLQESGPGLVKPSQTLSLTCTVSDGSIISGVYYWSWIRQHPGKGLEWIGYIYYSGSTSYNPSLKSRLTMSVDTSKNQFSLKLSSVTAADTAVYYCARSGYSYALFDYWGQGTLVTVSS
VL: DIQMTQSPSSLSASLGDRVTITCRASQSVDRYFNWYQQKPGKAPKVLIFAASSLQSGVPSRFGGSGSGTDFTLTISSLQPEDFATYYCQQSYSTPWTFGQGTKVEVKR
notes: as for B11
B16: Ab2 (antibody, human IgG1, kappa, V domains shown)
VH: B15 VH with M2V, D26G, G27D, V33G, Y54F, S60D, L69V, M71I, Y109H
VL: DIQMTQSPSSLSASVGDRVTISCRASQFIGRYFNWYQQQPGKAPKVLIYAESSLQSGVPSRFSGSGSGTEFTLTISSLQPEDFARYYCQQSYSTPWTFGQGTKVEIKR
notes: as for B11

The binders below were run against T1, human CD27L on the surface of cells (assay: cell-based or functional assay).

| Binder | ADCC against Raji cells, EC50 (calcein release, NK effectors) [ng/mL] |
| --- | --- |
| B1 | 6 |
| B2 | 10 |

Molecular target: T1, human CD27L on the surface of cells
Test: cell-based or functional assay
Remark: another data set of the same source

| Binder | 786-0-IC50, Antibody Conc. (nM); cell growth inhibition, CellTiter-Glo, 4 days [nM] | 786-0-IC50, Drug Conc. (nM); cell growth inhibition, CellTiter-Glo, 4 days [nM] |
| --- | --- | --- |
| B1 | 0.07 | 0.34 |
| B3 | 0.11 | 0.54 |

Molecular target: T1, human CD27L on the surface of cells
Test: cell-based or functional assay
Remark: another data set of the same source

| Binder | ADCP, 786-0 EC50 (pM) | ADCP, Raji EC50 (pM) |
| --- | --- | --- |
| B1 | 0.087 | 1.42 |
| B2 | 0.008 | 0.008 |

Each binder was assayed against T1, human CD27L on the surface of cells (assay: flow cytometry (FACS) on 786-0 cells).

| Binder | EC50 [nM] |
| --- | --- |
| B1 | 0.1 |
| B2 | 0.1 |
| B3 | 0.08 |
| B4 | 0.02 |

The binders below were run against T1, human CD27L on the surface of cells (assay: Gyros, native human CD27L on Raji cells).

| Binder | Kd [nM] |
| --- | --- |
| B1 | 0.023 |
| B2 | 0.014 |
| B3 | 0.077 |
| B4 | 0.078 |

These binders were tested against T1, human CD27L on the surface of cells (assay: flow cytometry on 786-0 cells, reference Ab8).

| Binder | fold change of binding EC50 against Ab8 [fold] |
| --- | --- |
| B3 | 4 |

These binders were tested against T2, CD27L bound to Maxisorp plates (assay: ELISA on plate-bound CD27L; abolished = no curve could be generated or max signal less than 5%).
Protocol: CD27L was bound to Maxisorp plates at room temperature for >2 hours, shaking with lug/mL in 100 uL. The plates were then blocked with 250 uL 10% Non-fat dry milk in PBS+0.05% Tween 20 for 2 hours. After a 4×300 uL PBS+0.05% Tween20 (PBST) wash the modified Ab and purified parental control titrations ranging from 0.045 to 100 ng/mL were applied to the plates and incubated for 1 hour. A horseradish peroxidase conjugated αhuFc detection antibody (Jackson) diluted 1:7000 was applied to the plates after another PBST wash, and incubated for 1 hour. A final wash was performed and TMB substrate was incubated for 10 minutes and stopped with phosphoric acid. An OD reading at 450 nm was taken and plotted vs. concentration. These curves were then analyzed with a 3 parameter non linear curve fit and the EC₅₀ and Max calculated signal were compared to the purified control. Binding was determined to be similar to parental if the EC₅₀ was within 2 fold and the Max signal was greater than 50%. The binding was reduced if the EC₅₀ increased greater than 2 fold and/or the max signal was less than 50%. The binding was abolished if no curve could be generated or the max signal was less than 5%.

| Binder | binding result |
| --- | --- |
| B5 | no binding |
| B6 | no binding |
| B7 | no binding |
| B8 | no binding |
| B9 | no binding |
| B10 | no binding |

These binders were tested against T3, cynomolgus monkey CD27L (assay: binding to cynomolgus CD27L (column 'Cyno Avidity EC50 nM'); method not stated for the figure).

| Binder | EC50 [nM] |
| --- | --- |
| B2 | 0.48 |
| B11 | 0.87 |
| B12 | 1.4 |
| B13 | 0.43 |
| B4 | 0.34 |

These binders were tested against T1, human CD27L on the surface of cells (assay: binding to cells with native human CD27L (column 'Native cell Avidity EC50 nM'); cell line and method not stated for the figure).

| Binder | EC50 [nM] |
| --- | --- |
| B2 | 0.25 |
| B14 | 4.18 |
| B11 | 0.87 |
| B15 | 0.32 |
| B16 | 0.24 |
| B12 | 0.66 |
| B13 | 0.18 |
| B4 | 0.09 |

Each binder was assayed against T4, Histidine-tagged human soluble CD27L (assay: BIACORE 3000, antibody captured by goat anti-human IgG on a CM5 chip, Hu CD27L-his as analyte (column 'Affinity Hu Biacore KD nM')).
Protocol: Affinity for recombinant soluble human CD27L was determined using a CM5 chip on a BIACORE 3000. Goat anti-human IgG antibody was used to capture the test antibody. Binding and dissociation of Histidine-tagged human soluble CD27L was measured to determine Kₐ, Kₐ, and KD.

| Binder | Kd [nM] |
| --- | --- |
| B2 | 3.05 |
| B14 | 4.35 |
| B11 | 6.06 |
| B15 | 0.62 |
| B16 | 0.59 |
| B12 | 10.4 |
| B13 | 0.71 |
| B4 | 10.8 |

From patent publication US20130078237A1 (Amgen, published 2013)
